# ± gives the uncertainty stated by the source.
# Assay: self-splicing fitness, log relative to wild type (ln ratio); higher = more splicing; Tetrahymena group I intron in knt gene, E. coli kanamycin selection, DiMSum; sequences stand for … in CUCUCU…GGAGGGAAAAGUUAUCAGGCAUGCACCUGGUAGCUAGUCUUUAAACCAAUAGAUUGCAUCGGUUUAAAAGGCAAGACCGUCAAAUUGCGGGAAAGGGGUCAACAGCCGUUCAGUACCAAGUCUCAGGGGAAACUUUGAGAUGGCCUUGCAAAGGGUAUGGUAAUAAGCUGACGGACAUGGUCCUAACCACGCAGCCAAGUCCUAAGUCAACAGAUCUUCUGUUGAUAUGGAUGCAGUUCACAGACUAAAUGUCGGUCGGGGAAGAUGUAUUCUUCUCAUAAGAUAUAGUCGGACCUCUCCUUAAUGGGAGCUAGCGGAUGAAGUGAUGCAACACUGGAGCCGCUGGGAACUAAUUUGUAUGCGAAAGUAUAUUGAUUAGUUUUGGAGUACUCGUGGUCG
# How it was run: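 Fitness was computed with DiMSum as the error-weighted combination of replicate fold changes, kanamycin versus none, each normalised to wild type. The library randomised all eight intron nucleotides of the P1ex region, with the intron placed in the knt kanamycin-resistance gene on pET-22b(+) in E. coli BL21(DE3). Six replicate transformations were grown overnight at 37°C or 30°C on LB agar with or without 25 μg/mL kanamycin, plus 100 μg/mL carbenicillin, 50 μM IPTG and 0.2% rhamnose. Pooled colonies were amplicon-sequenced on an Illumina HiSeq 2500.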
Sequence,self-splicing fitness (ln) (30 °C),self-splicing fitness (ln) (37 °C)
GAAAAGCAAUAUUACGGAAA,-2.88 ± 0.27,-1.55 ± 0.16
GAAAAGCAAUAUUACGGAGA,-3.59 ± 0.26,-2.19 ± 0.21
GAAAAGCAAUAUUACGGCUC,-0.401 ± 0.085,0.342 ± 0.12
GAAAAGCAAUAUUACGGUAU,-2.38 ± 0.11,-1.69 ± 0.14
GAAAAGCAAUAUUACGGUCC,-1.8 ± 0.23,-0.588 ± 0.17
GAAAAGCAAUAUUACGUCUA,-0.367 ± 0.053,0.0921 ± 0.066
GAAAAGCAAUAUUACGUGAU,-2.38 ± 0.087,-1.9 ± 0.11
GAAAAGCAAUAUUACGUGCU,-1.8 ± 0.098,-0.978 ± 0.1
GAAAAGCAAUAUUACGUUUA,-1.32 ± 0.11,-0.963 ± 0.1
GAACAGCAAUAUUACGAACU,-0.795 ± 0.07,0.239 ± 0.09
GAACAGCAAUAUUACGACGG,-3.4 ± 0.19,-1.81 ± 0.18
GAACAGCAAUAUUACGACGU,-0.688 ± 0.064,0.167 ± 0.077
GAACAGCAAUAUUACGAGCA,-1.01 ± 0.1,-0.521 ± 0.1
GAACAGCAAUAUUACGAGUC,-2.08 ± 0.09,-1.45 ± 0.094
GAACAGCAAUAUUACGAUGU,-1.05 ± 0.043,-0.336 ± 0.06
GAACAGCAAUAUUACGCAGG,-3.74 ± 0.14,-2.7 ± 0.11
GAACAGCAAUAUUACGCCCU,-1.69 ± 0.42,0.579 ± 0.37
GAACAGCAAUAUUACGCUGG,-1.98 ± 0.28,-1.3 ± 0.2
GAACAGCAAUAUUACGGCGC,-0.147 ± 0.065,-0.195 ± 0.09
GAACAGCAAUAUUACGGCGG,-3.13 ± 0.16,-0.604 ± 0.12
GAACAGCAAUAUUACGGUAC,-1.37 ± 0.064,-0.573 ± 0.072
GAACAGCAAUAUUACGGUCC,-4.14 ± 0.25,-0.683 ± 0.13
GAACAGCAAUAUUACGGUGC,-1.38 ± 0.074,-1.22 ± 0.086
GAACAGCAAUAUUACGUACU,-1.26 ± 0.077,-0.125 ± 0.1

Sequence,self-splicing fitness (ln) (30 °C),self-splicing fitness (ln) (37 °C)
GAACAGCAAUAUUACGUAGG,-2.12 ± 0.057,-0.569 ± 0.066
GAACAGCAAUAUUACGUUCU,-3.36 ± 0.13,-3.63 ± 0.2
GAAGAGCAAUAUUACGAAAG,-4.13 ± 0.31,-2.41 ± 0.18
GAAGAGCAAUAUUACGAACG,,-2.41 ± 0.33
GAAGAGCAAUAUUACGAAGC,-3.81 ± 0.46,-0.865 ± 0.3
GAAGAGCAAUAUUACGAAUC,-3.48 ± 0.22,-1.91 ± 0.15
GAAGAGCAAUAUUACGACAC,-1.1 ± 0.31,0.351 ± 0.33
GAAGAGCAAUAUUACGACGG,-2.5 ± 0.37,-2.67 ± 0.48
GAAGAGCAAUAUUACGAGAC,-3.95 ± 0.26,-1.4 ± 0.25
GAAGAGCAAUAUUACGAUGG,-3.18 ± 0.17,-2.1 ± 0.23
GAAGAGCAAUAUUACGCAUG,-3.45 ± 0.47,-2.36 ± 0.33
GAAGAGCAAUAUUACGCCCA,-3.65 ± 0.48,-0.321 ± 0.31
GAAGAGCAAUAUUACGGCAA,,-2.36 ± 0.49
GAAGAGCAAUAUUACGGCCA,-1.59 ± 0.3,-1.27 ± 0.5
GAAGAGCAAUAUUACGGCGA,-1.57 ± 0.2,-0.931 ± 0.25
GAAGAGCAAUAUUACGGUCA,-2.72 ± 0.34,-2.05 ± 0.23
GAAGAGCAAUAUUACGGUCC,-2.17 ± 0.26,-2.32 ± 0.33
GAAGAGCAAUAUUACGGUCG,-3.24 ± 0.13,-1.61 ± 0.15
GAAGAGCAAUAUUACGGUGU,-3.49 ± 0.14,-3.02 ± 0.23
GAAGAGCAAUAUUACGGUUA,-1.49 ± 0.19,-1.27 ± 0.23
GAAGAGCAAUAUUACGUAGU,-2.69 ± 0.13,-2.88 ± 0.2
GAAGAGCAAUAUUACGUCAU,-3.91 ± 0.48,-2.13 ± 0.38
GAAGAGCAAUAUUACGUCUC,-2.37 ± 0.37,-1.19 ± 0.49
GAAGAGCAAUAUUACGUGAC,-3.21 ± 0.22,-1.72 ± 0.18

Sequence,self-splicing fitness (ln) (30 °C),self-splicing fitness (ln) (37 °C)
GAAGAGCAAUAUUACGUUUU,-4.09 ± 0.23,-2.38 ± 0.21
GAAUAGCAAUAUUACGAAGG,-2.77 ± 0.27,
GAAUAGCAAUAUUACGCCCG,-1.28 ± 0.18,-0.828 ± 0.23
GAAUAGCAAUAUUACGCCUU,-0.0381 ± 0.072,0.111 ± 0.081
GAAUAGCAAUAUUACGCGCA,-0.334 ± 0.066,-0.494 ± 0.074
GAAUAGCAAUAUUACGCGUC,-1.98 ± 0.23,0.15 ± 0.32
GAAUAGCAAUAUUACGCUAA,-2.59 ± 0.25,-1.05 ± 0.25
GAAUAGCAAUAUUACGCUUU,-2.02 ± 0.15,-1.35 ± 0.16
GAAUAGCAAUAUUACGGAGG,-4.24 ± 0.3,-2.27 ± 0.22
GAAUAGCAAUAUUACGGUCU,-0.677 ± 0.084,-0.0473 ± 0.097
GAAUAGCAAUAUUACGGUUA,-0.656 ± 0.11,-0.631 ± 0.091
GAAUAGCAAUAUUACGUCUC,-0.581 ± 0.11,-0.137 ± 0.16
GAAUAGCAAUAUUACGUGCC,-0.897 ± 0.12,-0.104 ± 0.15
GAAUAGCAAUAUUACGUGUU,-2.18 ± 0.12,-0.873 ± 0.1
GAAUAGCAAUAUUACGUUGG,-3.3 ± 0.16,-2.77 ± 0.2
GAAUAGCAAUAUUACGUUUA,-1.79 ± 0.15,-1.01 ± 0.15
GACAAGCAAUAUUACGAAAG,-3.82 ± 0.23,-3.18 ± 0.24
GACAAGCAAUAUUACGACGU,-0.139 ± 0.065,-0.167 ± 0.074
GACAAGCAAUAUUACGACUA,-0.408 ± 0.058,0.117 ± 0.066
GACAAGCAAUAUUACGAGAA,-1.77 ± 0.3,-2.19 ± 0.22
GACAAGCAAUAUUACGAGGU,-3.51 ± 0.15,-2.92 ± 0.16
GACAAGCAAUAUUACGAGUG,-1.55 ± 0.056,-0.456 ± 0.073
GACAAGCAAUAUUACGAUCG,-0.776 ± 0.086,-0.39 ± 0.11
GACAAGCAAUAUUACGCAAG,-2.27 ± 0.091,-1.75 ± 0.12

Sequence,self-splicing fitness (ln) (30 °C),self-splicing fitness (ln) (37 °C)
GACAAGCAAUAUUACGCCUA,-0.964 ± 0.093,-0.0625 ± 0.088
GACAAGCAAUAUUACGCCUG,-1.3 ± 0.093,-0.0185 ± 0.1
GACAAGCAAUAUUACGCUCU,-2.38 ± 0.13,-1.08 ± 0.12
GACAAGCAAUAUUACGCUUC,-3.75 ± 0.26,-2.25 ± 0.25
GACAAGCAAUAUUACGGCUG,-0.552 ± 0.082,-0.635 ± 0.11
GACAAGCAAUAUUACGGGUC,-3.73 ± 0.19,-3.15 ± 0.28
GACAAGCAAUAUUACGGGUU,-3.38 ± 0.14,-3.46 ± 0.17
GACAAGCAAUAUUACGGUCG,-1.22 ± 0.076,-0.0208 ± 0.09
GACAAGCAAUAUUACGGUUA,-0.281 ± 0.079,-0.186 ± 0.077
GACAAGCAAUAUUACGGUUC,-3.57 ± 0.16,-2.81 ± 0.32
GACAAGCAAUAUUACGUAAU,-2.61 ± 0.088,-1.16 ± 0.081
GACAAGCAAUAUUACGUAUA,-1.76 ± 0.15,-1.79 ± 0.13
GACAAGCAAUAUUACGUGGG,-4.48 ± 0.2,-1.87 ± 0.12
GACAAGCAAUAUUACGUGUU,-3.4 ± 0.12,-2.21 ± 0.12
GACCAGCAAUAUUACGAAUG,-1.82 ± 0.071,-1.49 ± 0.088
GACCAGCAAUAUUACGACAU,-0.634 ± 0.011,-0.0858 ± 0.032
GACCAGCAAUAUUACGACGC,0.184 ± 0.074,-0.35 ± 0.085
GACCAGCAAUAUUACGAUCA,-1.38 ± 0.1,-1.1 ± 0.12
GACCAGCAAUAUUACGAUGA,-0.717 ± 0.071,-0.509 ± 0.085
GACCAGCAAUAUUACGCACA,-0.51 ± 0.05,-0.0966 ± 0.07
GACCAGCAAUAUUACGCAUU,-0.15 ± 0.053,0.0155 ± 0.067
GACCAGCAAUAUUACGCGAC,-2.3 ± 0.11,-1.04 ± 0.13
GACCAGCAAUAUUACGCUAA,-1.18 ± 0.078,0.196 ± 0.093
GACCAGCAAUAUUACGGAAU,-0.34 ± 0.046,0.128 ± 0.066

# — the supplement of paper PMC7877785
